Tests used:
HeLa Kyoto [1] = assay: solubility change mitosis vs G1/S (difference of NP-40 vs SDS log2 ratios) (log2 ratio difference); higher = more soluble in mitosis
HeLa Kyoto [2] = assay: melting temperature (median over replicates), in situ; higher = more thermally stable
HeLa Kyoto [3] = assay: solubility in G1/S (NP-40 vs SDS abundance) (log2 ratio); higher = more soluble; settings: cell cycle stage: G1/S
HeLa Kyoto [4] = assay: thermal stability score vs G1/S (z-score of summed log2 fold changes over temperatures); higher = more thermally stable than in G1/S
[5] = cell cycle stage: early G1 (4.5 h after nocodazole release)
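For melting temperature (median over replicates), in situ in this document: HeLa Kyoto cells synchronized by double thymidine or nocodazole block, proteins quantified by TMT10plex mass spectrometry, three independent biological replicates.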
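For solubility change mitosis vs G1/S (difference of NP-40 vs SDS log2 ratios) in this document: synchronized HeLa Kyoto cells (double thymidine block for G1/S, nocodazole release for mitosis), protein amounts in NP-40 versus SDS lysates quantified by mass spectrometry, three biological replicates.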
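For solubility in G1/S (NP-40 vs SDS abundance) in this document: HeLa Kyoto cells arrested at G1/S by double thymidine block, proteins quantified by TMT10plex mass spectrometry in mild NP-40 versus SDS extracts, three biological replicates.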
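For thermal stability score vs G1/S (z-score of summed log2 fold changes over temperatures) in this document: synchronized HeLa Kyoto cells, proteins quantified by TMT10plex mass spectrometry, three biological replicates, mitosis taken 0.5 h after nocodazole release, G1/S directly after double thymidine block.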

Sequence	solubility change mitosis (log2) (HeLa Kyoto [1])	melting temperature (HeLa Kyoto [2]; cell cycle stage: G1/S) [°C]	melting temperature (HeLa Kyoto [2]; cell cycle stage: mitosis) [°C]	solubility in G1/S (log2) (HeLa Kyoto [3])	thermal stability score (HeLa Kyoto [4]; [5])	thermal stability score (HeLa Kyoto [4]; cell cycle stage: mitosis)
MTPEFDEEVVFENSPLYQYLQDLGHTDFEICSSLSPKTEKCTTEGQQKPPTRVLPKQGILLKVAETIKSWIFFSQCNKKDDLLHKLDIGFRLDSLHTILQQEVLLQEDVELIELLDPSILSAGQSQQQENGHLPTLCSLATPNIWDLSMLFAFISLLVMLPTWWIVSSWLVWGVILFVYLVIRALRLWRTAKLQVTLKKYSVHLEDMATNSRAFTNLVRKALRLIQETEVISRGFTLVSAACPFNKAGQHPSQHLIGLRKAVYRTLRANFQAARLATLYMLKNYPLNSESDNVTNYICVVPFKELGLGLSEEQISEEEAHNFTDGFSLPALKVLFQLWVAQSSEFFRRLALLLSTANSPPGPLLTPALLPHRILSDVTQGLPHAHSACLEELKRSYEFYRYFETQHQSVPQCLSKTQQKSRELNNVHTAVRSLQLHLKALLNEVIILEDELEKLVCTKETQELVSEAYPILEQKLKLIQPHVQASNNCWEEAISQVDKLLRRNTDKKGKPEIACENPHCTVVPLKQPTLHIADKDPIPEEQELEAYVDDIDIDSDFRKDDFYYLSQEDKERQKREHEESKRVLQELKSVLGFKASEAERQKWKQLLFSDHAVLKSLSPVDPVEPISNSEPSMNSDMGKVSKNDTEEESNKSATTDNEISRTEYLCENSLEGKNKDNSSNEVFPQGAEERMCYQCESEDEPQADGSGLTTAPPTPRDSLQPSIKQRLARLQLSPDFTFTAGLAAEVAARSLSFTTMQEQTFGGEEEEQIIEENKNEIEEK [VEZT]	-0.229	52.6	52	0.0301	-1.08	-3.04
MAGSSEEAPDYGRGVVIMDDWPGYDLNLFTYPQHYYGDLEYVLIPHGIIVDRIERLAKDIMKDIGYSDIMVLCVLKGGYKFCADLVEHLKNISRNSDRFVSMKVDFIRLKSYRNDQSMGEMQIIGGDDLSTLAGKNVLIVEDVVGTGRTMKALLSNIEKYKPNMIKVASLLVKRTSRSDGFRPDYAGFEIPNLFVVGYALDYNEYFRDLNHICVINEHGKEKYRV [PRTFDC1]	-0.113	56.5	55.5	-0.298	-0.858	-0.334
MTSSRLWFSLLLAAAFAGRATALWPWPQNFQTSDQRYVLYPNNFQFQYDVSSAAQPGCSVLDEAFQRYRDLLFGSGSWPRPYLTGKRHTLEKNVLVVSVVTPGCNQLPTLESVENYTLTINDDQCLLLSETVWGALRGLETFSQLVWKSAEGTFFINKTEIEDFPRFPHRGLLLDTSRHYLPLSSILDTLDVMAYNKLNVFHWHLVDDPSFPYESFTFPELMRKGSYNPVTHIYTAQDVKEVIEYARLRGIRVLAEFDTPGHTLSWGPGIPGLLTPCYSGSEPSGTFGPVNPSLNNTYEFMSTFFLEVSSVFPDFYLHLGGDEVDFTCWKSNPEIQDFMRKKGFGEDFKQLESFYIQTLLDIVSSYGKGYVVWQEVFDNKVKIQPDTIIQVWREDIPVNYMKELELVTKAGFRALLSAPWYLNRISYGPDWKDFYIVEPLAFEGTPEQKALVIGGEACMWGEYVDNTNLVPRLWPRAGAVAERLWSNKLTSDLTFAYERLSHFRCELLRRGVQAQPLNVGFCEQEFEQT [HEXA]	-0.164	56.7	56.1	0.295	0.922	0.624
MKQLPVLEPGDKPRKATWYTLTVPGDSPCARVGHSCSYLPPVGNAKRGKVFIVGGANPNRSFSDVHTMDLGKHQWDLDTCKGLLPRYEHASFIPSCTPDRIWVFGGANQSGNRNCLQVLNPETRTWTTPEVTSPPPSPRTFHTSSAAIGNQLYVFGGGERGAQPVQDTKLHVFDANTLTWSQPETLGNPPSPRHGHVMVAAGTKLFIHGGLAGDRFYDDLHCIDISDMKWQKLNPTGAAPAGCAAHSAVAMGKHVYIFGGMTPAGALDTMYQYHTEEQHWTLLKFDTLLPPGRLDHSMCIIPWPVTCASEKEDSNSLTLNHEAEKEDSADKVMSHSGDSHEESQTATLLCLVFGGMNTEGEIYDDCIVTVVD [RABEPK]	-0.084	56.5	56	0.201	-1.33	-1.94
MAAATGPSFWLGNETLKVPLALFALNRQRLCERLRKNPAVQAGSIVVLQGGEETQRYCTDTGVLFRQESFFHWAFGVTEPGCYGVIDVDTGKSTLFVPRLPASHATWMGKIHSKEHFKEKYAVDDVQYVDEIASVLTSQKPSVLLTLRGVNTDSGSVCREASFDGISKFEVNNTILHPEIVECRVFKTDMELEVLRYTNKISSEAHREVMKAVKVGMKEYELESLFEHYCYSRGGMRHSSYTCICGSGENSAVLHYGHAGAPNDRTIQNGDMCLFDMGGEYYCFASDITCSFPANGKFTADQKAVYEAVLRSSRAVMGAMKPGVWWPDMHRLADRIHLEELAHMGILSGSVDAMVQAHLGAVFMPHGLGHFLGIDVHDVGGYPEGVERIDEPGLRSLRTARHLQPGMVLTVEPGIYFIDHLLDEALADPARASFLNREVLQRFRGFGGVRIEEDVVVTDSGIELLTCVPRTVEEIEACMAGCDKAFTPFSGPK [PEPD]	-0.184	54.1	53.8	-0.0689	-1.19	-2.41
MEPAEQPSELVSAEGRNRKAVLCQRCGSRVLQPGTALFSRRQLFLPSMRKKPALSDGSNPDGDLLQEHWLVEDMFIFENVGFTKDVGNIKFLVCADCEIGPIGWHCLDDKNSFYVALERVSHE [RABIF]	-0.0782	52.2	51.7	0.225	0.827	0.411
MAKRKEENFSSPKNAKRPRQEELEDFDKDGDEDECKGTTLTAAEVGIIESIHLKNFMCHSMLGPFKFGSNVNFVVGNNGSGKSAVLTALIVGLGGRAVATNRGSSLKGFVKDGQNSADISITLRNRGDDAFKASVYGNSILIQQHISIDGSRSYKLKSATGSVVSTRKEELIAILDHFNIQVDNPVSVLTQEMSKQFLQSKNEGDKYKFFMKATQLEQMKEDYSYIMETKERTKEQIHQGEERLTELKRQCVEKEERFQSIAGLSTMKTNLESLKHEMAWAVVNEIEKQLNAIRDNIKIGEDRAARLDRKMEEQQVRLNEAEQKYKDIQDKLEKISEETNARAPECMALKADVVAKKRAYNEAEVLYNRSLNEYKALKKDDEQLCKRIEELKKSTDQSLEPERLERQKKISWLKERVKAFQNQENSVNQEIEQFQQAIEKDKEEHGKIKREELDVKHALSYNQRQLKELKDSKTDRLKRFGPNVPALLEAIDDAYRQGHFTYKPVGPLGACIHLRDPELALAIESCLKGLLQAYCCHNHADERVLQALMKRFYLPGTSRPPIIVSEFRNEIYDVRHRAAYHPDFPTVLTALEIDNAVVANSLIDMRGIETVLLIKNNSVARAVMQSQKPPKNCREAFTADGDQVFAGRYYSSENTRPKFLSRDVDSEISDLENEVENKTAQILNLQQHLSALEKDIKHNEELLKRCQLHYKELKMKIRKNISEIRELENIEEHQSVDIATLEDEAQENKSKMKMVEEHMEQQKENMEHLKSLKIEAENKYDAIKFKINQLSELADPLKDELNLADSEVDNQKRGKRHYEEKQKEHLDTLNKKKRELDMKEKELEEKMSQARQICPERIEVEKSASILDKEINRLRQKIQAEHASHGDREEIMRQYQEARETYLDLDSKVRTLKKFIKLLGEIMEHRFKTYQQFRRCLTLRCKLYFDNLLSQRAYCGKMNFDHKNETLSISVQPGEGNKAAFNDMRALSGGERSFSTVCFILSLWSIAESPFRCLDEFDVYMDMVNRRIAMDLILKMADSQRFRQFILLTPQSMSSLPSSKLIRILRMSDPERGQTTLPFRPVTQEEDDDQR [SMC6]	0.0261	50.6	50.4	-0.133	0.465	-0.0501
MAEERPGAWFGFGFCGFGQELGSGRGRQVHSPSPLRAGVDICRVSASWSYTAFVTRGGRLELSGSASGAAGRCKDAWASEGLLAVLRAGPGPEALLQVWAAESALRGEPLWAQNVVPEAEGEDDPAGEAQAGRLPLLPCARAYVSPRAPFYRPLAPELRARQLELGAEHALLLDAAGQVFSWGGGRHGQLGHGTLEAELEPRLLEALQGLVMAEVAAGGWHSVCVSETGDIYIWGWNESGQLALPTRNLAEDGETVAREATELNEDGSQVKRTGGAEDGAPAPFIAVQPFPALLDLPMGSDAVKASCGSRHTAVVTRTGELYTWGWGKYGQLGHEDTTSLDRPRRVEYFVDKQLQVKAVTCGPWNTYVYAVEKGKS [RCCD1]	-0.0463	51.8	54	0.0194	-0.546	-1.48
MSRIESLTRARIDRSRELASKTREKEKMKEAKDARYTNGHLFTTISVSGMTMCYACNKSITAKEALICPTCNVTIHNRCKDTLANCTKVKQKQQKAALLKNNTALQSVSLRSKTTIRERPSSAIYPSDSFRQSLLGSRRGRSSLSLAKSVSTTNIAGHFNDESPLGLRRILSQSTDSLNMRNRTLSVESLIDEAEVIYSELMSDFEMDEKDFAADSWSLAVDSSFLQQHKKEVMKQQDVIYELIQTELHHVRTLKIMTRLFRTGMLEELHLEPGVVQGLFPCVDELSDIHTRFLSQLLERRRQALCPGSTRNFVIHRLGDLLISQFSGPSAEQMCKTYSEFCSRHSKALKLYKELYARDKRFQQFIRKVTRPAVLKRHGVQECILLVTQRITKYPLLISRILQHSHGIEEERQDLTTALGLVKELLSNVDEGIYQLEKGARLQEIYNRMDPRAQTPVPGKGPFGREELLRRKLIHDGCLLWKTATGRFKDVLVLLMTDVLVFLQEKDQKYIFPTLDKPSVVSLQNLIVRDIANQEKGMFLISAAPPEMYEVHTASRDDRSTWIRVIQQSVRTCPSREDFPLIETEDEAYLRRIKMELQQKDRALVELLREKVGLFAEMTHFQAEEDGGSGMALPTLPRGLFRSESLESPRGERLLQDAIREVEGLKDLLVGPGVELLLTPREPALPLEPDSGGNTSPGVTANGEARTFNGSIELCRADSDSSQRDRNGNQLRSPQEEALQRLVNLYGLLHGLQAAVAQQDTLMEARFPEGPERREKLCRANSRDGEAGRAGAAPVAPEKQATELALLQRQHALLQEELRRCRRLGEERATEAGSLEARLRESEQARALLEREAEEARRQLAALGQTEPLPAEAPWARRPVDPRRRSLPAGDALYLSFNPPQPSRGTDRLDLPVTTRSVHRNFEDRERQELGSPEERLQDSSDPDTGSEEEGSSRLSPPHSPRDFTRMQDIPEETESRDGEAVASES [ARHGEF2]	-0.0226	48.4	48.4	-0.137	0.217	2.08
MAAARHSTLDFMLGAKADGETILKGLQSIFQEQGMAESVHTWQDHGYLATYTNKNGSFANLRIYPHGLVLLDLQSYDGDAQGKEEIDSILNKVEERMKELSQDSTGRVKRLPPIVRGGAIDRYWPTADGRLVEYDIDEVVYDEDSPYQNIKILHSKQFGNILILSGDVNLAESDLAYTRAIMGSGKEDYTGKDVLILGGGDGGILCEIVKLKPKMVTMVEIDQMVIDGCKKYMRKTCGDVLDNLKGDCYQVLIEDCIPVLKRYAKEGREFDYVINDLTAVPISTSPEEDSTWEFLRLILDLSMKVLKQDGKYFTQGNCVNLTEALSLYEEQLGRLYCPVEFSKEIVCVPSYLELWVFYTVWKKAKP [SMS]	-0.166	56.6	56.5	0.398	-2.98	-1.47

— the supplement of paper PMC5998384
